Data from US20090208538A1 (published 2009).

Assays:
[1] = molecular target: T1, cdr2, human peptide on HLA-A*02:01 (human); experiment: cytokine release
T1 peptide: SLLEEMFLTV

[2] = molecular target: T2, cdr2, human peptide on HLA-A*02:01 (human); experiment: cytokine release
T2 peptide: SLLEEMFLT

[3] = molecular target: T3, cdr2 (cerebellar degeneration-related 2 protein), human peptide on HLA-A*02:01 (human); experiment: multimer staining
T3 peptide: LLEEMFLTV

binding result [1]: recognises | binding result [2]: no recognition | binding result [3]: recognises
B1: cdr2 TCR (clone 11/12) (TCR, V domains shown)
Valpha: QQQVRQSPQSLTVWEGGTTVLTCSYEDSTFNYFPWYQQFPGEGPALLISILSVSDKKEDGRFTTFFNKREKKLSLHIIDSQPGDSATYFCAASGASGGSNAKLTFGKGTKLSVKS
Vbeta: DSGVVQSPRHIIKEKGGRSVLTCIPISGHSNVVWYQQTLGKELKFLIQHYEKVERDKGFLPSRFSVQQFDDYHSEMNMSALELEDSAMYFCASSLGGWAEQFFGPGTRLTVL
